Results from article PMC9482650, “Quantitative fragmentomics allow affinity mapping of interactomes” (Nature Communications, 2022).

Key:
Assay in all cases: holdup assay
Set-up in all cases: key: below the threshold = too weak to quantify, mostly under pKd 3.1 to 4
Conditions in all cases: plain residues with an end cap or a label only (N-terminal biotin on a linker: ado-ado)
NHERF4_1, Q86UT5-2 = target: NHERF4_1, Q86UT5-2
LNX2_2, Q8N448 = target: T1, LNX2_2, Q8N448
T1 sequence (Q8N448 334-432, limits assumed, looked up): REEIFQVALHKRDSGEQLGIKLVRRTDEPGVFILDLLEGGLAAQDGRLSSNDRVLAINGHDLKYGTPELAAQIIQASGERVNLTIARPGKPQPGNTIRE

PTPN13_1, Q12923 = target: T2, PTPN13_1, Q12923
T2 sequence (Q12923 1088-1188, limits assumed, looked up): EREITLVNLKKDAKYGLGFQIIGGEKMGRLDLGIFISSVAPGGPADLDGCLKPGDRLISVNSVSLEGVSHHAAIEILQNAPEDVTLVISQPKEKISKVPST

SNTG2, Q9NY99 = target: T3, SNTG2, Q9NY99
T3 sequence (Q9NY99 68-166, limits assumed, looked up): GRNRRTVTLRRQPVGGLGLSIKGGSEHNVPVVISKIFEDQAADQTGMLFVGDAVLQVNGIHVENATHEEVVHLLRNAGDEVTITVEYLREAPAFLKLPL

SHANK1, Q9Y566 = target: T4, SHANK1, Q9Y566
T4 sequence (Q9Y566 658-767, limits assumed, looked up): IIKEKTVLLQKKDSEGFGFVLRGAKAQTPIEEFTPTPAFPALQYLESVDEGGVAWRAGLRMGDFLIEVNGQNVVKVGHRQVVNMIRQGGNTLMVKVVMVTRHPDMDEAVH

PARD3B_1, Q8TEW8 = target: T5, PARD3B_1, Q8TEW8
T5 sequence (Q8TEW8 196-299, limits assumed, looked up): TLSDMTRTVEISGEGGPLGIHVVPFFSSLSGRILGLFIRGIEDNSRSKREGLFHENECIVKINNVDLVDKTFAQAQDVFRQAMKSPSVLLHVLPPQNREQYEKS

DLG4_1, P78352 = target: DLG4_1, P78352
DFNB31_2, Q9P202 = target: T6, DFNB31_2, Q9P202
T6 sequence (Q9P202 274-371, limits assumed, looked up): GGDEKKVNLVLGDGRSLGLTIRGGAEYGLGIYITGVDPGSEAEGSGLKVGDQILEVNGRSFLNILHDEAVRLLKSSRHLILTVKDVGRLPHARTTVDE

GRID2IP_2, A4D2P6 = target: GRID2IP_2, A4D2P6
MPP2, Q14168 = target: T7, MPP2, Q14168
T7 sequence (Q14168 180-250, limits assumed, looked up): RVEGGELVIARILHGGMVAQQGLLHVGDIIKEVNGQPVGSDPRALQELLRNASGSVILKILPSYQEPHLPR

GRASP, Q7Z6J2 = target: GRASP, Q7Z6J2
MAGI2_6, Q86UL8 = target: MAGI2_6, Q86UL8
MAGI1_1, Q96QZ7 = target: MAGI1_1, Q96QZ7
NHERF2_2, Q15599 = target: NHERF2_2, Q15599
SIPA1L2, Q9P2F8 = target: T8, SIPA1L2, Q9P2F8
T8 sequence (Q9P2F8 945-1036, limits assumed, looked up): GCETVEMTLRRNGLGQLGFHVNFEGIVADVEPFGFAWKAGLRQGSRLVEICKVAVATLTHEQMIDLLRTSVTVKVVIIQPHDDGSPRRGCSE

DFNB31_1, Q9P202 = target: T9, DFNB31_1, Q9P202
T9 sequence (Q9P202 135-233, limits assumed, looked up): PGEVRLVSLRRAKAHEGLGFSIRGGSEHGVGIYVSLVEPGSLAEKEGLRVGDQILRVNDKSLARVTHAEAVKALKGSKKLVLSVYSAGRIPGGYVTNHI

GRIP1_4, Q9Y3R0 = target: T10, GRIP1_4, Q9Y3R0
T10 sequence (Q9Y3R0 467-571, limits assumed, looked up): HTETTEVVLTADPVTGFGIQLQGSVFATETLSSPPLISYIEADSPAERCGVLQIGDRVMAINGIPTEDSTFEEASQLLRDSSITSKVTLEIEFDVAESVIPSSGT

LDB3, O75112 = target: LDB3, O75112
LNX1_1, Q8TBB1 = target: LNX1_1, Q8TBB1
SCRIB_3, Q14160 = target: SCRIB_3, Q14160
CARD11, Q9BXL7 = target: T11, CARD11, Q9BXL7
T11 sequence (Q9BXL7 662-765, limits assumed, looked up): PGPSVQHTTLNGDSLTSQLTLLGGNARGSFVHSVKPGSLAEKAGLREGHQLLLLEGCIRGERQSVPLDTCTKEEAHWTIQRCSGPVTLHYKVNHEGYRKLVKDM

Inadl_9, Q8NI35 = target: Inadl_9, Q8NI35
GIPC2, Q8TF65 = target: GIPC2, Q8TF65
IL16_1, Q14005 = target: IL16_1, Q14005
PDZD7_3, Q9H5P4 = target: T12, PDZD7_3, Q9H5P4
T12 sequence (Q9H5P4 857-944, limits assumed, looked up): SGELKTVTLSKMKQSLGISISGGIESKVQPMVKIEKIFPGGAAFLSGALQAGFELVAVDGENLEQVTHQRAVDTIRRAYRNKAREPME

Sequence of SCRIB_3, Q14160 (Q14160 999-1103): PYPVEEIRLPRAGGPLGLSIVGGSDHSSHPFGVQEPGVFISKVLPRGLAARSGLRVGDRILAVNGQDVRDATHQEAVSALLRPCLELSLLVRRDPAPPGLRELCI
Sequence of NHERF4_1, Q86UT5-2 (Q86UT5 other isoform, or with tags, fused parts or gaps): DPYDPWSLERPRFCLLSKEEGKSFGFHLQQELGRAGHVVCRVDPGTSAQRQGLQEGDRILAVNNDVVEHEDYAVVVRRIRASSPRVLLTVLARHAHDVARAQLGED
Sequence of NHERF2_2, Q15599 (Q15599 142-238): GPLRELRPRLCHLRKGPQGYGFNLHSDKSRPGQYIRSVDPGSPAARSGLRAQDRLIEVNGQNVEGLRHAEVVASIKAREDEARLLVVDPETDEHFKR
Sequence of IL16_1, Q14005 (Q14005 210-306): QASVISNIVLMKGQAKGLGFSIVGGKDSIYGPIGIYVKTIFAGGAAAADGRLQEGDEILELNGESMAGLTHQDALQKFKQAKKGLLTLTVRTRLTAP
Sequence of GRID2IP_2, A4D2P6 (A4D2P6 272-370): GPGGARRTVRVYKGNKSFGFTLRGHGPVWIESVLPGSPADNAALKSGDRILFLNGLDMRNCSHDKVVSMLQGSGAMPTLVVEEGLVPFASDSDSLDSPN
Sequence of LDB3, O75112 (O75112 1-94): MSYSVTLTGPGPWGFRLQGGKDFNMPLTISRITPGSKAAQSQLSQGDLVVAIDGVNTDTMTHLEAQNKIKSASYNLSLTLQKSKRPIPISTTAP
Sequence of Inadl_9, Q8NI35 (Q8NI35 1530-1615): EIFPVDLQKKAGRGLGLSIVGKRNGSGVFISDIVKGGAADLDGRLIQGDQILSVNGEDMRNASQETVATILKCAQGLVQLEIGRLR
Sequence of GIPC2, Q8TF65 (Q8TF65 112-203): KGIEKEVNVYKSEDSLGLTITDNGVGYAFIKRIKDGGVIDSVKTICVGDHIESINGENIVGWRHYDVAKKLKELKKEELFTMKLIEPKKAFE
Sequence of GRASP, Q7Z6J2 (Q7Z6J2 96-193): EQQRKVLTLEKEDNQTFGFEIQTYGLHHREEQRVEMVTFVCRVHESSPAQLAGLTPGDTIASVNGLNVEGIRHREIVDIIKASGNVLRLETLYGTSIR
Sequence of MAGI1_1, Q96QZ7 (Q96QZ7 1-106): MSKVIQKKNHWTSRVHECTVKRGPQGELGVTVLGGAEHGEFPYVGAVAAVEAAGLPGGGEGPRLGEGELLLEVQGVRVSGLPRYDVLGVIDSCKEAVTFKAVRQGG
Sequence of DLG4_1, P78352 (P78352 62-152): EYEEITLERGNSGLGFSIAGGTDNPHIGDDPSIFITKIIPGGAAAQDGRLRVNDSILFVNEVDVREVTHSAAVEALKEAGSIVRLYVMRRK
Sequence of LNX1_1, Q8TBB1 (Q8TBB1 261-371): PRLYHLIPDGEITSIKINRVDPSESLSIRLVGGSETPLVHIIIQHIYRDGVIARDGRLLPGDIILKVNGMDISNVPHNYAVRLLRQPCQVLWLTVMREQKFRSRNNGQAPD
Sequence of MAGI2_6, Q86UL8 (Q86UL8 1141-1229): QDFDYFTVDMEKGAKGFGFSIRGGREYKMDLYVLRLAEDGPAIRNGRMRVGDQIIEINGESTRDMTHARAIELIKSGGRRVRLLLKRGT

Row | Binder | pKd (NHERF4_1, Q86UT5-2) | pKd (LNX2_2, Q8N448) | pKd (PTPN13_1, Q12923) | pKd (SNTG2, Q9NY99) | pKd (SHANK1, Q9Y566) | pKd (PARD3B_1, Q8TEW8) | pKd (DLG4_1, P78352) | pKd (DFNB31_2, Q9P202) | pKd (GRID2IP_2, A4D2P6) | pKd (MPP2, Q14168) | pKd (GRASP, Q7Z6J2) | pKd (MAGI2_6, Q86UL8) | pKd (MAGI1_1, Q96QZ7) | pKd (NHERF2_2, Q15599) | pKd (SIPA1L2, Q9P2F8) | pKd (DFNB31_1, Q9P202) | pKd (GRIP1_4, Q9Y3R0) | pKd (LDB3, O75112) | pKd (LNX1_1, Q8TBB1) | pKd (SCRIB_3, Q14160) | other results
1 | KKTPVSRSHL [SLC22A3, O75751] | 3.94 | below the threshold | below the threshold | 3.48 | 4.54 | below the threshold | 3.55 | below the threshold | 5.18 | below the threshold | 4.38 | below the threshold | below the threshold | 3.92 | 3.53 | below the threshold | below the threshold | below the threshold | below the threshold | below the threshold | pKd (CARD11, Q9BXL7): below the threshold; pKd (Inadl_9, Q8NI35): below the threshold; pKd (GIPC2, Q8TF65): below the threshold; pKd (IL16_1, Q14005): below the threshold; pKd (PDZD7_3, Q9H5P4): 3.91
2 | KAEEKPPSKV [SCN4B, Q8IWT1] | below the threshold | below the threshold | below the threshold | below the threshold | below the threshold | below the threshold | below the threshold | below the threshold | below the threshold | below the threshold | below the threshold | below the threshold | below the threshold | below the threshold | below the threshold | 3.57 | below the threshold | below the threshold | 3.49 | below the threshold | pKd (CARD11, Q9BXL7): below the threshold; pKd (Inadl_9, Q8NI35): 3.8; pKd (GIPC2, Q8TF65): below the threshold; pKd (IL16_1, Q14005): below the threshold; pKd (PDZD7_3, Q9H5P4): below the threshold
3 | QKNKDREYYV [NRXN3, Q9HDB5] | below the threshold | 4.81 | below the threshold | 3.5 | below the threshold | 4.17 | below the threshold | below the threshold | 3.52 | 4.39 | below the threshold | below the threshold | below the threshold | below the threshold | below the threshold | below the threshold | below the threshold | below the threshold | 3.65 | below the threshold | pKd (CARD11, Q9BXL7): below the threshold; pKd (Inadl_9, Q8NI35): 4.56; pKd (GIPC2, Q8TF65): 3.52; pKd (IL16_1, Q14005): 3.72; pKd (PDZD7_3, Q9H5P4): below the threshold
4 | HDDYFYHDEL [RCN2, Q14257] | 4.1 | below the threshold | below the threshold | below the threshold | below the threshold | 3.7 | 3.54 | below the threshold | below the threshold | below the threshold | 5.01 | 3.9 | below the threshold | 4.11 | below the threshold | below the threshold | below the threshold | 4.09 | below the threshold | 3.81 | pKd (CARD11, Q9BXL7): below the threshold; pKd (Inadl_9, Q8NI35): below the threshold; pKd (GIPC2, Q8TF65): below the threshold; pKd (IL16_1, Q14005): below the threshold; pKd (PDZD7_3, Q9H5P4): below the threshold
